The series addresses T1, Egalitarian (EGL) (UniProt Q9W1K4).
T1 sequence: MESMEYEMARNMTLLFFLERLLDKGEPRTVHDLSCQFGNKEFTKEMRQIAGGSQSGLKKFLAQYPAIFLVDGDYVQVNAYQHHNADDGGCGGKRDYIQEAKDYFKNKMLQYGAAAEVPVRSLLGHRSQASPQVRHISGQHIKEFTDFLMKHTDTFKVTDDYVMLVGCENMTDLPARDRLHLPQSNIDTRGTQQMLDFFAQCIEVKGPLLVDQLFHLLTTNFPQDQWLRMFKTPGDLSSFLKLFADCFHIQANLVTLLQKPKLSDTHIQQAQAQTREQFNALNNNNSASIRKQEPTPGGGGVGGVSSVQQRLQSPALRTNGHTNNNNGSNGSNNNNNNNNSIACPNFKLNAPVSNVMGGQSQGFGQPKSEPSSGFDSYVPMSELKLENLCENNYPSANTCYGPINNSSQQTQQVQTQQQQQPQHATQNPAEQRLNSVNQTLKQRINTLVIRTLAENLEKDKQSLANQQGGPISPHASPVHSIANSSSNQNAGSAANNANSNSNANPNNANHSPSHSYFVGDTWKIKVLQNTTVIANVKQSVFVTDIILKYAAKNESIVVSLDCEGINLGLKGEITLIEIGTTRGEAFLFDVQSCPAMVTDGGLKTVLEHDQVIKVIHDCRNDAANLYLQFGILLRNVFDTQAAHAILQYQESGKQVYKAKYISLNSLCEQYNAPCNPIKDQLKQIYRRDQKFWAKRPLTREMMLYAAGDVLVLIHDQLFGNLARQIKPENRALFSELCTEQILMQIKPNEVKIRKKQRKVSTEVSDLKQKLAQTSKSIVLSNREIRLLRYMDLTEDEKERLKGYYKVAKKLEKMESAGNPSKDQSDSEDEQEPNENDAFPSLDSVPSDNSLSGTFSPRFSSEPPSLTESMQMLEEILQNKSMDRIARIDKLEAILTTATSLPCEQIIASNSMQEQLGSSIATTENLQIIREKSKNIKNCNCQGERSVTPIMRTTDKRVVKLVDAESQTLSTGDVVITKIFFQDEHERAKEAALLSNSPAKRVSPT
The series is described as follows: pull-down. As to conditions: reference (all sets normalized to TLS); EGL capture: DXB buffer (30 mM Hepes pH 7.3, 50 mM KCl, 2.5 mM MgCl2, 250 mM sucrose, 1 mM DTT), protease and RNase inhibitors, 90 min (binding temperature not …).

With fs(1)K10 TLS, the binding signal (fraction of TLS binding) worked out at 1.

Values taken from publication PMC8046350.
